± gives the standard deviation of the averaged measurements.
Experiment: total protein half-life in vivo (active degradation + dilution); higher = more stable protein
[1] = wild type E. coli NCM3722, growth: C-lim chemostat, doubling time 3 h
[2] = wild type E. coli NCM3722, growth: C-lim chemostat, doubling time 12 h
[3] = E. coli NCM3722 delta-clpP delta-lon delta-hslV, growth: N-lim chemostat, doubling time 6 h
[4] = E. coli NCM3722 delta-clpP, growth: N-lim chemostat, doubling time 6 h
[5] = E. coli NCM3722 delta-hslV, growth: N-lim chemostat, doubling time 6 h
[6] = E. coli NCM3722 delta-lon, growth: N-lim chemostat, doubling time 6 h
[7] = E. coli NCM3722 delta-smpB, growth: N-lim chemostat, doubling time 6 h
[8] = wild type E. coli NCM3722, growth: N-lim chemostat, doubling time 12 h
[9] = wild type E. coli NCM3722, growth: P-lim chemostat, doubling time 6 h
[10] = wild type E. coli NCM3722, growth: C-lim chemostat, doubling time 6 h
[11] = wild type E. coli NCM3722, growth: N-lim chemostat, doubling time 6 h
[12] = wild type E. coli NCM3722, growth: P-lim chemostat, doubling time 12 h

Sequence	total protein half-life in vivo [1] [h]	total protein half-life in vivo [2] [h]	total protein half-life in vivo [3] [h]	total protein half-life in vivo [4] [h]	total protein half-life in vivo [5] [h]	total protein half-life in vivo [6] [h]	total protein half-life in vivo [7] [h]	total protein half-life in vivo [8] [h]	total protein half-life in vivo [9] [h]	total protein half-life in vivo [10] [h]	total protein half-life in vivo [11] [h]	total protein half-life in vivo [12] [h]
MDHAIYTAMGAASQTLNQQAVTASNLANASTPGFRAQLNALRAVPVEGLSLPTRTLVTASTPGADMTPGKMDYTSRPLDVALQQDGWLAVQTADGSEGYTRNGSIQVDPTGQLTIQGHPVIGEAGPIAVPEGAEITIAADGTISALNPGDPANTVAPVGRLKLVKATGSEVQRGDDGIFRLSAETQATRGPVLQADPTLRVMSGVLEGSNVNAVAAMSDMIASARRFEMQMKVISSVDDNAGRANQLLSMS	0.504 ± 0.13	3.33 ± 1.4	–	–	–	–	–	–	–	–	–	–
MDHLPMPKFGPLAGLRVVFSGIEIAGPFAGQMFAEWGAEVIWIENVAWADTIRVQPNYPQLSRRNLHALSLNIFKDEGREAFLKLMETTDIFIEASKGPAFARRGITDEVLWQHNPKLVIAHLSGFGQYGTEEYTNLPAYNTIAQAFSGYLIQNGDVDQPMPAFPYTADYFSGLTATTAALAALHKVRETGKGESIDIAMYEVMLRMGQYFMMDYFNGGEMCPRMSKGKDPYYAGCGLYKCADGYIVMELVGITQIEECFKDIGLAHLLGTPEIPEGTQLIHRIECPYGPLVEEKLDAWLATHTIAEVKERFAELNIACAKVLTVPELESNPQYVARESITQWQTMDGRTCKGPNIMPKFKNNPGQIWRGMPSHGMDTAAILKNIGYSENDIQELVSKGLAKVED	> 4	13	6.21 ± 0.21	4.41	4.77 ± 0.81	4.71	4.726 ± 0.00071	8.76	6.27	–	–	–
MDHRLLEIIACPVCNGKLWYNQEKQELICKLDNLAFPLRDGIPVLLETEARVLTADESKS [P0AAZ7]	1.64 ± 0.1	8.88 ± 1.5	> 8	5.82 ± 0.15	–	4.19 ± 0.043	4.65 ± 1.2	6.3 ± 0.69	3.69 ± 0.26	4.73 ± 0.12	3.05 ± 0.11	7.87 ± 0.7
MDHSLNSLNNFDFLARSFARMHAEGRPVDILAVTGNMDEEHRTWFCARYAWYCQQMMQARELELEH	–	–	2.86	–	–	–	–	–	–	–	–	–
MDIFISKKMRNFILLAQTNNIARAAEKIHMTASPFGKSIAALEEQIGYTLFTRKDNNISLNKAGQELYQKLFPVYQRLSAIDNEIHNSGRRSREIVIGIDNTYPTIIFDQLISLGDKYEGVTAQPVEFSENGVIDNLFDRQLDFIISPQHVSARVQELENLTISELPPLRLGFLVSRRYEERQEQELLQELPWLQMRFQNRANFEAMIDANMRPCGINPTIIYRPYSFMAKISAVERGHFLTVIPHFAWRLVNPATLKYFDAPHRPMYMQEYLYSIRNHRYTATMLQHIAEDRDGTSH	–	–	5.12	–	–	–	–	9.66	–	–	–	–
MDIVFIEQLSVITTIGVYDWEQTIEQKLVFDIEMAWDNRKAAKSDDVADCLSYADIAETVVSHVEGARFALVERVAEEVAELLLARFNSPWVRIKLSKPGAVARAANVGVIIERGNNLKENN [P0AC16]	3.26 ± 0.37	11.8 ± 1.3	5.71 ± 0.35	5.86	5.4 ± 0.43	5.47 ± 0.74	–	10.7 ± 2.2	6.4 ± 0.65	6.02 ± 0.37	5.39 ± 0.56	12.39 ± 0.043
MDKIHAMQLFIKVAELESFSRAADFFALPKGSVSRQIQALEHQLGTQLLQRTTRRVKLTPEGMTYYQRAKDVLSNLSELDGLFQQDATSISGKLRIDIPPGIAKSLLLPRLSEFLYLHPGIELELSSHDRPVDILHDGFDCVIRTGALPEDGVIARPLGKLTMVNCASPHYLTRFGYPQSPDDLTSHAIVRYTPHLGVHPLGFEVASVNGVQWFKSGGMLTVNSSENYLTAGLAGLGIIQIPRIAVREALRAGRLIEVLPGYRAEPLSLSLVYPQRRELSRRVNLFMQWLAGVMKEYLD	2.32	7.24 ± 3.2	6.09 ± 0.38	4.8 ± 0.34	2.08	3.35 ± 0.51	2.76	–	–	3.43 ± 0.34	–	–
MDKVLDSALLSSANKRKGILAIGAHPDDIELGCGASLARLAQKGIYIAAVVMTTGNSGTDGIIDRHEESRNALKILGCHQTIHLNFADTRAHLQLNDMISALEDIIKNQIPSDVEIMRVYTMHDADRHQDHLAVYQASMVACRTIPQILGYETPSTWLSFMPQVFESVKEEYFTVKLAALKKHKS	–	–	5.73	–	–	–	–	–	–	–	–	–
MDLASLRAQQIELASSVIREDRLDKDPPDLIAGADVGFEQGGEVTRAAMVLLKYPSLELVEYKVARIATTMPYIPGFLSFREYPALLAAWEMLSQKPDLVFVDGHGISHPRRLGVASHFGLLVDVPTIGVAKKRLCGKFEPLSSEPGALAPLMDKGEQLAWVWRSKARCNPLFIATGHRVSVDSALAWVQRCMKGYRLPEPTRWADAVASERPAFVRYTANQP	3.05 ± 0.12	11.3 ± 0.85	–	5.52 ± 0.25	4.58 ± 0.4	4.952 ± 0.015	4.62 ± 0.2	8.84 ± 0.67	5.3 ± 0.39	6.09 ± 0.24	5.08 ± 0.14	9.801 ± 0.042
MDLIYFLIDFILHIDVHLAELVAEYGVWVYAILFLILFCETGLVVTPFLPGDSLLFVAGALASLETNDLNVHMMVVLMLIAAIVGDAVNYTIGRLFGEKLFSNPNSKIFRRSYLDKTHQFYEKHGGKTIILARFVPIVRTFAPFVAGMGHMSYRHFAAYNVIGALLWVLLFTYAGYFFGTIPMVQDNLKLLIVGIIVVSILPGVIEIIRHKRAAARAAK [P0ABP6]	2.65 ± 0.21	9.21 ± 3.2	3.68 ± 0.076	3.87	3.74	3.148 ± 0.016	4.71 ± 0.57	6.2 ± 0.26	–	5.03 ± 0.88	3.7 ± 0.13	7.57 ± 1.5
MDLQHWQAQFENWLKNHHQHQDAAHDVCHFRRVWATAQKLAADDDVDMLVILTACYFHDIVSLAKNHPQRQRSSILAAEETRRLLREEFEQFPAEKIEAVCHAIAAHSFSAQIAPLTTEAKIVQDADRLEALGAIGLARVFAVSGALGVALFDGEDPFAQHRPLDDKRYALDHFQTKLLKLPQTMQTARGKQLAQHNAHFLVEFMAKLSAELAGENEGVDHKVIDAFSSAG	2.09 ± 0.078	–	4.36 ± 0.052	3.48 ± 0.37	2.72	–	2.92 ± 0.03	3.19	2.83 ± 0.28	–	2.29	4.67 ± 0.13
MDLRRFITLKTVVEEGSFLRASQKLCCTQSTVTFHIQQLEQEFSVQLFEKIGRRMCLTREGKKLLPHIYELTRVMDTLREAAKKESDPDGELRVVSGETLLSYRMPQVLQRFRQRAPKVRLSLQSLNCYVIRDALLNDEADVGVFYRVGNDDALNRRELGEQSLVLVASPQIADVDFTEPGRHNACSFIINEPQCVFRQIFESTLRQRRITVENTIELISIESIKRCVAANIGVSYLPRFAVAKELECGELIELPFGEQSQTITAMCAHHAGKAVSPAMHTFIQCVEESFVAG	–	8.259 ± 0.077	5.31 ± 0.83	> 8	4.13	4.83	3.41	6.51	5.85	4.86	4.37 ± 0.49	7.91
MDLSLLKALSEADAIASSEQEVRQILLEEADRLQKEVRFDGLGSVLIRLNESTGPKVMICAHMDEVGFMVRSISREGAIDVLPVGNVRMAARQLQPVRITTREECKIPGLLDGDRQGNDVSAMRVDIGARSYDEVMQAGIRPGDRVTFDTTFQVLPHQRVMGKAFDDRLGCYLLVTLLRELHDAELPAEVWLVASSSEEVGLRGGQTATRAVSPDVAIVLDTACWAKNFDYGAANHRQIGNGPMLVLSDKSLIAPPKLTAWVETVAAEIGVPLQADMFSNGGTDGGAVHLTGTGVPTVVMGPATRHGHCAASIADCRDILQMQQLLSALIQRLTRETVVQLTDFR	2.18	–	5.79	–	–	–	–	–	–	–	–	–
MDNDKIDQHSDEIEVESEEKERGKKIEIDEDRLPSRAMAIHEHIRQDGEKELERDAMALLWSAIAAGLSMGASLLAKGIFQVELEGVPGSFLLENLGYTFGFIIVIMARQQLFTENTVTAVLPVMQKPTMSNVGLLIRLWGVVLLGNILGTGIAAWAFEYMPIFNEETRDAFVKIGMDVMKNTPSEMFANAIISGWLIATMVWMFPAAGAAKIVVIILMTWLIALGDTTHIVVGSVEILYLVFNGTLHWSDFIWPFALPTLAGNICGGTFIFALMSHAQIRNDMSNKRKAEARQKAERAENIKKNYKNPA	3.47	11.5 ± 1.9	6.19 ± 0.79	5.38 ± 0.26	5.3	5.46	6.11 ± 1.4	13.5 ± 1.3	6.29 ± 0.45	5.51 ± 0.23	5.75 ± 1.1	12.6 ± 0.066
MDNRGEFLNNVAQALGRPLRLEPQAEDAPLNNYANERLTQLNQQQRCDAFIQFASDVMLTRCELTSEAKAAEAAIRLCKELGDQSVVISGDTRLEELGISERLQQECNAVVWDPAKGAENISQAEQAKVGVVYAEYGLTESGGVVLFSAAERGRSLSLLPEYSLFILRKSTILPRVAQLAEKLHQKAQAGERMPSCINIISGPSSTADIELIKVVGVHGPVKAVYLIIEDC	2.33 ± 0.14	5.23 ± 0.45	4.84 ± 0.23	1.46	1.64	2.67	1.78 ± 0.043	2.49	2.13	3.75 ± 0.5	–	–
MDQFECINVADAHQKLQEKEAVLVDIRDPQSFAMGHAVQAFHLTNDTLGAFMRDNDFDTPVMVMCYHGNSSKGAAQYLLQQGYDVVYSIDGGFEAWQRQFPAEVAYGA [P0A6V5]	–	–	–	–	–	–	–	–	–	–	1.91	–
MDQVVIFKQIFDKVRNDLNYQWFYSELKRHNVSHYIYYLATENVHIVLKNDNTVLLKGLKNIVSVKFSKDRHLIETTSNKLKSREITFQEYRRNLAKAGVFRWVTNIHEQKRYYYTFDNSLLFTESIQKTTQILPR	–	–	–	–	–	–	–	–	–	4.33	–	5.25
MDSFPAIEIDKVKAWDFRLANINTSECLNVAYGVDANYLDGVGVSITSIVLNNRHINLDFYIIADVYNDGFFQKIAKLAEQNQLRITLYRINTDKLQCLPCTQVWSRAMYFRLFAFQLLGLTLDRLLYLDADVVCKGDISQLLHLGLNGAVAAVVKDVEPMQEKAVSRLSDPELLGQYFNSGVVYLDLKKWADAKLTEKALSILMSKDNVYKYPDQDVMNVLLKGMTLFLPREYNTIYTIKSELKDKTHQNYKKLITESTLLIHYTGATKPWHKWAIYPSVKYYKIALENSPWKDDSPRDAKSIIEFKKRYKHLLVQHHYISGIIAGVCYLCRKYYRK	2.93 ± 0.14	9.31 ± 1.8	5.91 ± 0.13	5.65 ± 0.22	5.85 ± 1.1	4.71 ± 0.095	5.17 ± 0.11	10.3 ± 2.3	5.29 ± 0.38	5.19 ± 0.48	6.04 ± 1.2	9.86 ± 0.11
MDTELLKTFLEVSRTRHFGRAAESLYLTQSAVSFRIRQLENQLGVNLFTRHRNNIRLTAAGEKLLPYAETLMSTWQAARKEVAHTSRHNEFSIGASASLWECMLNQWLGRLYQNQDAHTGLQFEARIAQRQSLVKQLHERQLDLLITTEAPKMDEFSSQLLGYFTLALYTSAPSKLKGDLNYLRLEWGPDFQQHEAGLIGADEVPILTTSSAELAQQQIAMLNGCTWLPVSWARKKGGLHTVVDSTTLSRPLYAIWLQNSDKNALIRDLLKINVLDEVY [P0A8R9]	3.05 ± 0.072	9.53 ± 0.73	5.38 ± 0.37	4.82 ± 0.081	4.553 ± 0.02	–	4.1 ± 0.12	7.65 ± 0.25	6.13 ± 0.24	5.676 ± 0.025	4.72 ± 0.46	11.7 ± 2
MDVRQSIHSAHAKTLDTQGLRNEFLVEKVFVADEYTMVYSHIDRIIVGGIMPITKTVSVGGEVGKQLGVSYFLERRELGVINIGGAGTITVDGQCYEIGHRDALYVGKGAKEVVFASIDTGTPAKFYYNCAPAHTTYPTKKVTPDEVSPVTLGDNLTSNRRTINKYFVPDVLETCQLSMGLTELAPGNLWNTMPCHTHERRMEVYFYFNMDDDACVFHMMGQPQETRHIVMHNEQAVISPSWSIHSGVGTKAYTFIWGMVGENQVFDDMDHVAVKDLR	3.43 ± 0.61	10.2 ± 0.68	5.44 ± 1.1	3.55	3.6 ± 0.5	3.28 ± 0.7	3.71 ± 0.51	5.64 ± 0.57	5.56	6.02 ± 0.23	4.18	11.6 ± 0.6

Source: the supplement of paper PMC11246515
